*1 amine or outer side, *2 acyl side, *3 side chain or, on linkers, in order; H or OH if unused. Side-chain parts run from the residue outwards. The star is where a group is joined. C18 diacid = O=C(O)CCCCCCCCCCCCCCCCC(=O)*; γGlu = O=C(O)[C@H](CCC(=O)[*:2])N[*:1]; Isovaleryl = CC(C)CC(=O)*; Ahx = NCCCCCC(=O)O
What was measured:
human NPY2 receptor [1] = target: T1, human NPY2 receptor (human, UniProt P49146 1-381); experiment: ratio of apparent Ki, pH 8 filtrate vs pH 7 filtrate
T1 construct: whole, on cells; also called hNPY2-R; hNPY2R
T1 sequence (looked up): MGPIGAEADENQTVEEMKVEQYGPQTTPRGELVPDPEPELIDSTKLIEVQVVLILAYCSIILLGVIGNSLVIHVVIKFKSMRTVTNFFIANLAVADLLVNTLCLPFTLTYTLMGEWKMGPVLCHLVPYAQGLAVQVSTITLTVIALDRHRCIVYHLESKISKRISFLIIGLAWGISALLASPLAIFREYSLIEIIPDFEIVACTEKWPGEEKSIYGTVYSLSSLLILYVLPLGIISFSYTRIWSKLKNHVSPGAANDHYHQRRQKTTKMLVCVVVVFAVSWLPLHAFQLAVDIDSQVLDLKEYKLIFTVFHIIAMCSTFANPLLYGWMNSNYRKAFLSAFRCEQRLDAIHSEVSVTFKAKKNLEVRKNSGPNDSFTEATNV
Method: (§1) The filtration RLB assay was carried out in 96-well plates in a final volume of 100 μl per well. Freeze-dried test peptides were dissolved in 100% dimethyl sulfoxide (DMSO) to stock solutions of 1 mM and serial dilutions were performed in assay buffer (50 mM HEPES, 5 mM MgCl₂, 1 mM CaCl₂), pH 7.4) containing 0.2% ovalbumin. […] Next, 80 μL membranes (HTS066M, ChemiSCREEN™ Human Neuropeptide Y2 Receptor Membrane Preparation, CHEMICON) were added to each well to give a final protein concentration of 0.5 μg/well. The plates were sealed and incubated at room temperature for 2 hours in a plate shaker set at 400 rpm. The incubation was stopped by vacuum filtration onto 0.5% polyethylene amine (PEI) presoaked GF/C filters using a 96-well FilterMate™ harvester (Perkin Elmer) followed by four washes with 300 μl/well ice-cold wash buffer (50 mM HEPES, 500 mM NaCl, pH7.4). Filter plates were then dried for 60 min at room temperature and the bottom of the plates was sealed with backing tape UniFilter-96. Finally, 50 μl/well scintillation counter cocktail (Microscint20, Packard) was added and the radioactivity was counted in the Packard TopCount NXT scintillation counter. IC₅₀ values (the half maximal inhibitory concentration of the agonist) were calculated by nonlinear regression analysis of sigmoidal dose-response curves. […]

human NPY2 receptor [2] = target: T1, human NPY2 receptor; experiment: RLB, apparent Ki of filtrate after incubation at pH 6.1-6.2 (assumed 10 mg/ml)
Method: as §1

human NPY5 receptor = target: T2, human NPY5 receptor (human, UniProt Q15761 1-445); experiment: cell-based or functional assay
T2 sequence (looked up): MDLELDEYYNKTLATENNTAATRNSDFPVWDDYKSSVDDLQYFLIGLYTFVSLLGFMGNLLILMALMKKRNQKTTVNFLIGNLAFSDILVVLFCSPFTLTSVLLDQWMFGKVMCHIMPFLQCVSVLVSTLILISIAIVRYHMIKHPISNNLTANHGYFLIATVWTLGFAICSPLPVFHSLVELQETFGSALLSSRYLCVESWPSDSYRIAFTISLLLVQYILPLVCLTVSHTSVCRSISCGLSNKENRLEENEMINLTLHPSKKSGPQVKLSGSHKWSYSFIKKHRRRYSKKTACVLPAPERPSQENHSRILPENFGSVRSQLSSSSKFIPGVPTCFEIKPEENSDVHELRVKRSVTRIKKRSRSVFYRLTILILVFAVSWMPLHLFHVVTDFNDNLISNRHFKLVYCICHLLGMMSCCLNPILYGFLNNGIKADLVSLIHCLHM

human NPY2 receptor [3] = target: T1, human NPY2 receptor; experiment: cell-based or functional assay
human NPY4 receptor = human NPY4 receptor (human, UniProt P50391 1-375); experiment: cell-based or functional assay
human NPY1 receptor = target: T3, human NPY1 receptor (human, UniProt P25929 1-384); experiment: cell-based or functional assay
T3 sequence (looked up): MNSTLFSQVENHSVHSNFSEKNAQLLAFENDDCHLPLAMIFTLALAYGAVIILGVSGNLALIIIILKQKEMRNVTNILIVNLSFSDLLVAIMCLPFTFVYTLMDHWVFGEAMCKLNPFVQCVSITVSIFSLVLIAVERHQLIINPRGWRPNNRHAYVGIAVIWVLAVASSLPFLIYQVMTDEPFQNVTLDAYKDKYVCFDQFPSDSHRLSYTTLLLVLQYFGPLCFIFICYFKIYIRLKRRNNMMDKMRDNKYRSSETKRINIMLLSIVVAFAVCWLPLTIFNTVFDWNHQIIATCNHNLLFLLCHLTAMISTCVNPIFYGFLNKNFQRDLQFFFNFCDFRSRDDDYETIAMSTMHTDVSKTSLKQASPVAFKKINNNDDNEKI

human NPY2 receptor [4] = target: T1, human NPY2 receptor; experiment: RLB: displacement of 125I-PYY(1-36) from hNPY2R membranes
human NPY2 receptor [5] = target: T1, human NPY2 receptor; experiment: RLB (125I-PYY(1-36) displacement, hNPY2R membranes), peptide from DMSO stock
Method: as §1

human NPY2 receptor [6] = target: T1, human NPY2 receptor; experiment: ratio of apparent Ki, pH 6 filtrate vs pH 7 filtrate
Method: as §1

human NPY2 receptor [7] = target: T1, human NPY2 receptor; experiment: RLB, apparent Ki of filtrate after incubation at pH 8.1-8.2 (assumed 10 mg/ml)
Method: The filtration RLB assay was carried out in 96-well plates in a final volume of 100 μl per well. Freeze-dried test peptides were dissolved in 100% dimethyl sulfoxide (DMSO) to stock solutions of 1 mM and serial dilutions were performed in assay buffer (50 mM HEPES, 5 mM MgCl₂, 1 mM CaCl₂), pH 7.4) containing 0.2% ovalbumin. […] Next, 80 μL membranes (HTS066M, ChemiSCREEN™ Human Neuropeptide Y2 Receptor Membrane Preparation, CHEMICON) were added to each well to give a final protein concentration of 0.5 μg/well. The plates were sealed and incubated at room temperature for 2 hours in a plate shaker set at 400 rpm. The incubation was stopped by vacuum filtration onto 0.5% polyethylene amine (PEI) presoaked GF/C filters using a 96-well FilterMate™ harvester (Perkin Elmer) followed by four washes with 300 μl/well ice-cold wash buffer (50 mM HEPES, 500 mM NaCl, pH7.4). Filter plates were then dried for 60 min at room temperature and the bottom of the plates was sealed with backing tape UniFilter-96. Finally, 50 μl/well scintillation counter cocktail (Microscint20, Packard) was added and the radioactivity was counted in the Packard TopCount NXT scintillation counter. IC₅₀ values (the half maximal inhibitory concentration of the agonist) were calculated by nonlinear regression analysis of sigmoidal dose-response curves.
The peptide was (partially) dissolved by shaking the filter unit horizontally at approx. 400 rpm for 2 hours at room temperature. The sample was filtered to remove any insoluble particles.

human NPY2 receptor [8] = target: T1, human NPY2 receptor; experiment: RLB, apparent Ki of filtrate after incubation at pH 7.1-7.2 (assumed 10 mg/ml)
Method: as §1

Chain of human NPY4 receptor (P50391 whole entry): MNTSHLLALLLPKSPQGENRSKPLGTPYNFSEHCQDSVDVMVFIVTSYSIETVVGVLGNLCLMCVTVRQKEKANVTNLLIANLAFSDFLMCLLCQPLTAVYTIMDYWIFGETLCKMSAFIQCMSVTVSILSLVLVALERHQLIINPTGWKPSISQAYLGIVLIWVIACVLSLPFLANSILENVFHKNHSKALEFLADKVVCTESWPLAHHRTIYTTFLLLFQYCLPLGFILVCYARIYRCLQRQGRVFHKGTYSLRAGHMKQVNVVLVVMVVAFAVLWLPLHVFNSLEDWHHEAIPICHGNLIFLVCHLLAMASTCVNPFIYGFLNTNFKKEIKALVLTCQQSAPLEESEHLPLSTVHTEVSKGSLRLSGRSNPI

B1: Compound 176 (peptide)
peptide: Isovaleryl-APEK([Ahx-γGlu-C18 diacid])PEEDATPEEIQRYYVSLRHYYNWLTRQRY-NH2
SMILES: CC[C@H](C)[C@H](NC(=O)[C@H](CCC(=O)O)NC(=O)[C@H](CCC(=O)O)NC(=O)[C@@H]1CCCN1C(=O)[C@@H](NC(=O)[C@H](C)NC(=O)[C@H](CC(=O)O)NC(=O)[C@H](CCC(=O)O)NC(=O)[C@H](CCC(=O)O)NC(=O)[C@@H]1CCCN1C(=O)[C@H](CCCCNC(=O)CCCCCNC(=O)CC[C@H](NC(=O)CCCCCCCCCCCCCCCCC(=O)O)C(=O)O)NC(=O)[C@H](CCC(=O)O)NC(=O)[C@@H]1CCCN1C(=O)[C@H](C)NC(=O)CC(C)C)[C@@H](C)O)C(=O)N[C@@H](CCC(N)=O)C(=O)N[C@@H](CCCNC(=N)N)C(=O)N[C@@H](Cc1ccc(O)cc1)C(=O)N[C@@H](Cc1ccc(O)cc1)C(=O)N[C@H](C(=O)N[C@@H](CO)C(=O)N[C@@H](CC(C)C)C(=O)N[C@@H](CCCNC(=N)N)C(=O)N[C@@H](Cc1c[nH]cn1)C(=O)N[C@@H](Cc1ccc(O)cc1)C(=O)N[C@@H](Cc1ccc(O)cc1)C(=O)N[C@@H](CC(N)=O)C(=O)N[C@@H](Cc1c[nH]c2ccccc12)C(=O)N[C@@H](CC(C)C)C(=O)N[C@H](C(=O)N[C@@H](CCCNC(=N)N)C(=O)N[C@@H](CCC(N)=O)C(=O)N[C@@H](CCCNC(=N)N)C(=O)N[C@@H](Cc1ccc(O)cc1)C(N)=O)[C@@H](C)O)C(C)C
RLB ratio (RLB8/RLB7) (human NPY2 receptor [1]): 1.4 | Ki (human NPY2 receptor [2]): 3.9 nM | EC50, HTRF cAMP Gi assay (human NPY5 receptor): > 5000 nM | EC50, HTRF cAMP Gi assay (human NPY2 receptor [3]): 0.168 nM | EC50, HTRF cAMP Gi assay (human NPY4 receptor): > 5000 nM | EC50, HTRF cAMP Gi assay (human NPY1 receptor): > 5000 nM | Ki (human NPY2 receptor [4]): 1.48 nM | Ki (human NPY2 receptor [5]): 8.7 nM | RLB ratio (RLB6/RLB7) (human NPY2 receptor [6]): 1 | Ki (human NPY2 receptor [7]): 5.7 nM | Ki (human NPY2 receptor [8]): 4 nM

Source: patent US20260015399A1 (Boehringer Ingelheim, published 2026)
